Source: patent US8436140B2, “Natriuretic peptide-mediated imaging of atherosclerotic plaque” (priority 2008, dated 2013)
Positions of bridges follow the written chain, without caps; N, C: chain ends. Residues, ends and D or L forms follow the SMILES beside them. *: point of attachment. DOTA = O=C(O)CN1CCN(CC(=O)O)CCN(CC(=O)*)CCN(CC(=O)O)CC1

Key:
in vivo = details: rabbit, iv, 20 MBq, total radioactivity
Description: The blood clearance studies were performed in normal rabbits (n=4) to evaluate the pharmacokinetics of tracer in vivo. About 20 MBq of ^64Cu-DOTA-C-ANF was injected intravenously into the left ear of rabbit, and blood sample (0.2 mL) was drawn from the contralateral ear over the period of 1 h (1 min, 3 min, 5 min, 10 min, 20 min, 40 min and 60 min). The activity of the blood samples were counted in gamma counter and presented in percent injected dose per gram (ID %/g). […] (FIG. 7). This tracer therefore is a highly sensitive means by which to detect a trace amount of ^64Cu-DOTA-C-ANF in the atherosclerotic animal model

[1] = system: extracellular matrix proteins such as collagen and proteoglycans; experiment: 3T MRI of atherosclerotic lesion with plaque-targeting contrast agent; type: in vivo, rabbit; details: 0.5 μmol/kg, 1 h before scan, TP 1
Description: The presence of atherosclerotic lesions in the rabbits was confirmed by 3T MRI 1 hour after administration of a non-receptor specific plaque-targeting contrast agent ([…], 0.5 μmol/kg body weight, Schering AG, Germany). […] For scanning, the rabbit was placed supine into a plastic bed. Three micropipette tubes filled with 0.5 mL Gadofluorine M (Bayer Schering Pharma AG, Berlin) served as fiducial markers, and were taped into position on the bed. At the beginning of the PET study, these tubes were drained of the Gadofluorine by syringe, and refilled with 0.5 mL of ^64Cu to serve as the PET fiducials. These helped to “co-localize” the plaque regions between the two image modalities.
In this example, a MR T1 W coronal image of a typical atherosclerotic lesion in the femoral artery of a rabbit 4 weeks after air dessication-induced injury (TP 1) is shown (FIG. 6). Gadofluorine M (0.5 μmol/kg body weight) was given 1 h before the scan. […] MRI confirmed the presence of a thickened neointima in the injured vessel characteristic of the atherosclerotic-like plaques induced in this model.

Structure (SMILES) | tissue uptake at 1 min (in vivo) | tissue uptake at 0.05 h (in vivo) | tissue uptake at 1 h (in vivo) | contrast agent at injured femoral artery (MR T1W image) [1] | contrast agent uptake in control artery (MR T1W image) [1]
CC[C@H](C)[C@@H]1NC(=O)[C@H](CCCNC(=N)N)NC(=O)[C@H](CC(=O)O)NC(=O)[C@H]([C@@H](C)CC)NC(=O)[C@H](CCCNC(=N)N)NC(=O)CNC(=O)CNC(=O)[C@H](Cc2ccccc2)NC(=O)[C@@H](NC(=O)[C@H](CO)NC(=O)[C@H](CO)NC(=O)[C@H](CCCNC(=N)N)NC(=O)CN2CCN(CC(=O)O)CCN(CC(=O)O)CCN(CC(=O)O)CC2)CSSC[C@@H](C(N)=O)NC(=O)[C@H](C)NC(=O)CNC1=O [^64Cu-DOTA-C-ANF, metal not drawn] ({DOTA}-RSSCFGGRIDRIGAC-NH2; disulfide 4-15) | 0.22 %ID/g | 0.1 %ID/g | 0.02 %ID/g |  | 
CC(C(=O)NCC(=O)NCCCC[C@H](NC(=O)CO[C@H]1O[C@H](CO)[C@@H](O)[C@H](O)[C@@H]1O)C(=O)N1CCN(S(=O)(=O)C(F)(F)C(F)(F)C(F)(F)C(F)(F)C(F)(F)C(F)(F)C(F)(F)C(F)(F)F)CC1)N1CCN(CC(=O)O)CCN(CC(=O)O)CCN(CC(=O)O)CC1 (some centres unmarked) [Gadofluorine M] |  |  |  | binding | weak uptake
